Measurements from patent publication US20020077284A1 (WHITEHEAD INSTITUTE FOR BIOMEDICAL RESEARCH, published 2002).
Positions of bridges follow the written chain, without caps; N, C: chain ends. Non-standard residues stand in square brackets, D forms with d.

What was measured:
[1] = biological target: T1, HIV-1 envelope protein gp41 subunit (HXB2 envelope), N-helix coiled-coil (HIV-1 (HXB2), UniProt P04578 512-856); experiment: cell-based or functional assay
[2] = biological target: T2, N36 peptide of HIV-1 gp41 (HIV-1); experiment: circular dichroism thermal melt at 222 nm; 10 µM C34 peptide + 10 µM N36 in PBS pH 7.0
T2 construct: Synthetic peptide; forms the trimeric N36 coiled-coil of the N36/C34 complex

[3] = biological target: T1, HIV-1 envelope protein gp41 subunit …; experiment: cell-based or functional assay; remark: listed apart in the source
[4] = biological target: T2, N36 peptide of HIV-1 gp41; experiment: circular dichroism thermal melt of the N36/C34 variant complex

Question: How did the “IC50 (nM) cell fusion” value [1] turn out when Ac-WMEWDAEINNYTSLIHSLIEESQNQQEKNEQELL-NH2 (Position in gp41 numbering) [C34 peptide Arg^633→Ala] was run?
Answer: Its value is 0.76 nM.

Question: What about the “IC50 (nM) viral entry” value [1] of the same binder?
Answer: The value was 2.6 nM.

Question: What about the “Tm (apparent melting temperature of the N36/C34 complex)” value (“Tm” for short) [2] of the same binder?
Answer: The value was 65 ° C.

Question: What does the source list for Ac-WMEWDREANNYTSLIHSLIEESQNQQEKNEQELL-NH2 (Position in gp41 numbering) [C34 peptide Ile^635→Ala]?
Answer: decrease in inhibitory activity against wildtype C34 [3]: ~2 fold; IC50 (nM) cell fusion [1]: 0.96 nM; IC50 (nM) viral entry [1]: 4.1 nM; Tm (apparent melting temperature of the N36/C34 complex) [2]: 55 ° C.

Question: For Ac-WMEGDREINNYTSLIHSLIEESQNQQEKNEQELL-NH2 (Position in gp41 numbering) [C34 peptide Trp^631→Gly], which “IC50 values (nanomolar) for cell fusion” value [3] is on record?
Answer: Its value is 25 nM.

Question: And the “IC50 values (nanomolar) for virus entry” value [3]?
Answer: The value was 38 nM.

Question: And the “Tm” value [4]?
Answer: The value was 35 ° C.

Question: With Ac-WMEADREINNYTSLIHSLIEESQNQQEKNEQELL-NH2 (Position in gp41 numbering) [C34 peptide Trp^631→Ala] as the binder, how does the “decrease in inhibitory activity against wildtype C34” value [3] read?
Answer: The value was roughly 30 fold.

Question: And the “Tm” value [2]?
Answer: The value was 37 ° C.

Question: How did the “IC50 values (nanomolar) for cell fusion” value [3] turn out when Ac-WMEVDREINNYTSLIHSLIEESQNQQEKNEQELL-NH2 [C34 peptide Trp^631→Val] was run?
Answer: The value was 4.5 nM.

Question: And the “IC50 values (nanomolar) for virus entry” value [3]?
Answer: Its value is 13 nM.

Question: What about the “Tm” value [4] of the same binder?
Answer: The value was 43 ° C.

Question: What does the source list for Ac-WMELDREINNYTSLIHSLIEESQNQQEKNEQELL-NH2 [C34 peptide Trp^631→Leu]?
Answer: IC50 values (nanomolar) for cell fusion [3]: 3.2 nM; IC50 values (nanomolar) for virus entry [3]: 5.3 nM; Tm (apparent melting temperature of the N36/C34 complex) [4]: 50 ° C.

Question: With Ac-WMEFDREINNYTSLIHSLIEESQNQQEKNEQELL-NH2 [C34 peptide Trp^631→Phe] as the binder, how does the “IC50 values (nanomolar) for cell fusion” value [3] read?
Answer: Its value is 1.6 nM.

Question: And the “IC50 values (nanomolar) for virus entry” value [3]?
Answer: The value was 3.61 nM.

Question: What about the “Tm” value [4] of the same binder?
Answer: The value was 59 ° C.

Question: For Ac-[dK][dK]G[dA][dC][dE][dL][dL]G[dW][dE][dW][dA][dW][dL][dC][dA][dA]-NH2 (disulfide 5-16 (inferred)) [D10pep5], which “IC50, syncytia assay” value [3] is on record?
Answer: The value was roughly 6000 nM.

Question: How did the “IC50 for inhibition of syncytia formation, against D10pep5” value [3] turn out when Ac-[dK][dK][dK][dK]G[dA][dC][dE][dL][dL]G[dW][dE][dW][dA][dW][dL][dC][dA][dA]-NH2 (disulfide 7-18 (inferred)) [D10pep5a] was run?
Answer: The value was roughly 2 fold.

Question: Ac-[dK][dK]G[dA][dC][dE][dA][dR][dH][dR][dE][dW][dA][dW][dL][dC][dA][dA]-NH2 (disulfide 5-16 (inferred)) [D10pep1a] was tested. Which “IC50 for inhibition of syncytia formation, against D10pep1” value [3] did it give?
Answer: Its value is roughly 2 fold.
